Measurements published in PMC9278865 (Science Advances, 2022).

Molecular target: SARS-CoV-2 RBDwt (residues 319 to 541) (SARS-CoV-2, UniProt P0DTC2 319-541)
Test: SPR

B1: ACE2_(740) LFMYQY2HA in the IgG3 backbone with a truncated hinge (M80) (Fc fusion)
chain: QSTIEEQAKTFLDKFNHEAEDLFYQSSLASWNYNTNITEENVQNMNNAGDKWSAFLKEQSTFAQYYPLQEIQNLTVKLQLQALQQNGSSVLSEDKSKRLNTILNTMSTIYSTGKVCNPDNPQECLLLEPGLNEIMANSLDYNERLWAWESWRSEVGKQLRPLYEEYVVLKNEMARANHYEDYGDYWRGDYEVNGVDGYDYSRGQLIEDVEHTFEEIKPLYEHLHAYVRAKLMNAYPSYISPIGCLPAHLLGDMWGRFWTNLYSLTVPFGQKPNIDVTDAMVDQAWDAQRIFKEAEKFFVSVGLPNMTYGFWENSMLTDPGNVQKAVCHPTAWDLGKGDFRILMCTKVTMDDFLTAHAEMGAIQYDMAYAAQPFLLRNGANEGFHEAVGEIMSLSAATPKHLKSIGLLSPDFQEDNETEINFLLKQALTIVGTLPFTYMLEKWRWMVFKGEIPKDQWMKKWWEMKREIVGVVEPVPHDETYCDPASLFHVSNDYSFIRYYTRTLYQFQFQEALCQAAKHEGPLHKCDISNSTEAGQKLFNMLRLGKSEPWTLALENVVGAKNMNVRPLLNYFEPLFTWLKDQNKNSFVGWSTDWSPYADQSIKVRISLKSALGDKAYEWNDNEMYLFRSSVAYAMRQYFLKVKNQMILFGEEDVRVANLKPRISFNFFVTAPKNVSDIIPRTEVEKAIRMSRSRINDAFRLNDNSLEFLGIQPTLGPPNQPPVS
B1: binds.
